Test results as given in paper PMC7815755.

Assays:
[1] = biological target: IRGB10 D185R mutant (head-to-head dimer disruption mutant) (mouse) (UniProt Q0GUM3); experiment: SEC-MALS; tentative dimer peak of the head-to-head disruption mutants (Fig. 3e, g)
[2] = biological target: Immunity-related GTPase B10 (IRGB10), mouse, full length, wild type (mouse) (UniProt Q0GUM3); experiment: SEC-MALS; third peak of the first SEC, Superdex 200 10/300, 20 mM Tris-HCl pH 8.0, 150 mM NaCl, room temperature, no GTP added

Row | stoichiometry N [1] | stoichiometry N [2] | Substance
1 | 2 | – | IRGB10 D185R mutant (head-to-head dimer disruption mutant) (from UniProt Q0GUM3 1-417) (natural protein)
2 | – | 2 | Immunity-related GTPase B10 (IRGB10), mouse, full length, wild type (from UniProt Q0GUM3 1-417) (natural protein)
